Test results taken from the Immune Epitope Database (IEDB).

Experiments:
Settings in all cases: source organism: Rickettsia bellii OSU 85-389
HLA-B*15:17 = experiment: IEDB peptide-MHC binding, purified MHC/direct/fluorescence; filed as Kd, often an IC50 or EC50 that approximates it; ≥ and ≤ were set here for values at or beyond the usual limits of such assays
HLA-B*51:01 = experiment: as above
HLA-A*26:01 = experiment: as above
HLA-A*02:11 = experiment: as above
HLA-A*02:16 = experiment: as above
HLA-B*46:01 = experiment: as above
HLA-B*27:03 = experiment: as above
HLA-A*02:03 = experiment: as above
HLA-A*02:01 = experiment: as above
HLA-A*68:02 = experiment: as above
HLA-B*57:01 = experiment: as above
HLA-B*18:01 = experiment: as above
HLA-A*24:03 = experiment: as above
HLA-A*02:12 = experiment: as above
HLA-A*02:19 = experiment: as above
HLA-B*39:01 = experiment: as above
HLA-A*29:02 = experiment: as above
HLA-A*03:01 = experiment: as above
HLA-B*15:01 = experiment: as above
HLA-A*23:01 = experiment: IEDB peptide-MHC binding, purified MHC/competitive/fluorescence; filed as Kd, often an IC50 or EC50 that approximates it; ≥ and ≤ were set here for values at or beyond the usual limits of such assays
HLA-A*66:01 = experiment: as above
HLA-B*53:01 = experiment: as above
HLA-A*30:01 = experiment: as above
HLA-B*44:02 = experiment: as above
HLA-B*14:02 = experiment: as above

Measured: Kd

EDFEIFYNL
≥ 20 µM: HLA-B*15:17 | HLA-B*51:01 | HLA-A*26:01 | HLA-A*02:11 | HLA-A*02:16 | HLA-B*46:01 | HLA-B*27:03 | HLA-A*02:03 | HLA-A*02:01 | HLA-B*57:01 | HLA-B*18:01 | HLA-A*24:03 | HLA-A*02:12 | HLA-A*02:19 | HLA-B*39:01 | HLA-A*29:02 | HLA-A*03:01 | HLA-B*15:01
144 nM: HLA-A*68:02
≥ 5 µM: HLA-A*23:01 | HLA-A*66:01 | HLA-B*53:01 | HLA-A*30:01 | HLA-B*44:02 | HLA-B*14:02
